The labels stand for the following.
T1: Human Type 1 mutCALR (human)
T1 chain: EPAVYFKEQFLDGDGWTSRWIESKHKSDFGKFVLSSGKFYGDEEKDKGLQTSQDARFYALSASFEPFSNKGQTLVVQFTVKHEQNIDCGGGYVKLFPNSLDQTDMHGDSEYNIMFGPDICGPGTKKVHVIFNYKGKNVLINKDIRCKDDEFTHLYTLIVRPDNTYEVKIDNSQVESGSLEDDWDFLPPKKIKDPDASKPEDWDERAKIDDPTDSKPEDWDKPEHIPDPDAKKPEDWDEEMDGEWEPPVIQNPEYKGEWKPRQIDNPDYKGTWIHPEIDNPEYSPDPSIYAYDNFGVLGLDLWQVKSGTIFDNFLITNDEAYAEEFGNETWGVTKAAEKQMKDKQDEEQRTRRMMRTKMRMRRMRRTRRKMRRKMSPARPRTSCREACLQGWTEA

B1: anti-mutCALR antibody clone 52 (antibody, human IgG1, kappa, V domains shown)
VH: EVQLVQSGAEVKKPGASVKVSCKVSGYTLTELSMHWVRQAPGKGLEWMGLVDPEDGETIYAEKFQGRVTITADTSTDTAYMELSSPRSEDTAVYYCATTIGDDYFDYWGQGTLVTVSS
VL: not shown
B2: anti-mutCALR antibody clone 30 (antibody, human IgG1, lambda, V domains shown)
VH: EVQLVQSGAEVKKPGASVKVSCKVSGYTLTELSMQWVRQAPGKGLEWMGGFDPDDGETMYAEKFQGRLTVTEDTSTDTVYMELRSLTSEDTALYFCATSPGYDFFDYWGQGTLVTVSS
VL: SYVLTQPPSVSVAPGKTATITCGGNNIGTKSVHWYQQKPGQAPVLVVYDDSDRPSGIPERFSGSNSGNTATLTINRVEAGDEADYYCQVWDSSNDLLIFGGGTKLTVLG
notes: human IgG1; group 1
B3: anti-mutCALR antibody clone 11 (antibody, human IgG1, lambda, V domains shown)
VH: B2 VH with Q3R
VL: QSALTQPRSVSGSPGQSVTISCTGTSSDVGGYNYVSWYQQHPGKAPKLMIYDVSKRPSGVPDRFSGSNSGNTATLTINRVEAGDEADYYCQVWDSSNDLLIFGGGTKLTVLG
notes: human IgG1; group 1
B4: anti-mutCALR antibody clone 33 (antibody, human IgG1, lambda, V domains shown)
VH: QVQLVQSGAEVKKPGATVKISCKVSGYSFTDYFIHWVQQAPGKGLAWVGLVDPEDGETIYAEKFQGRVTITADTSTDTAYMELSSLRSEDTAVYYCATPGGILTDPDAFDIWGQGTMVTVSS
VL: QSALTQPRSVSGSPGQSVTISCAGTGSDVGGYNHVSWYQHHPGKAPKLMIYDVNKRPSGVPDRFSGSKSGNTASLTISGLQAEDEADYYCSSYIPSSTRWVFGGGTKLTVLG
notes: human IgG1; group 2
B5: anti-mutCALR antibody clone 34 (antibody, human IgG1, lambda, V domains shown)
VH: B4 VH
VL: QSALTQPASVSGSPGQSITISCTGTSSDVGGYNYVSWYQQHPGKAPKLMIYEVSNRPSGVSNRFSGSKSGNTASLTISGLQAEDEADYYCSSYTSSSTYVFGTGTKVTVLG
notes: human IgG1; group 2
B6: anti-mutCALR antibody clone 53 (antibody, human IgG1, lambda, V domains shown)
VH: QVQLVQSGAEVKKPGASVKVSCKVSGYTLTELSMHWVRQAPGKGLEWMGGFDPEDGETIYAQKFQGRVTMTEDTSTDTAYMELSSLRSEDTAVYYCATDIQGLAEFDYWGQGTLVTVSS
VL: QSALTQPRSVSGSPGQSVTISCTGTNTDVGAYIDVSWYQQHPGKAPKLIIYDVSKWPSGVPDRFSGSKSGNTASLTISGLQAEDEADYYCCSYAGNHSFSFGGGTKVTVLG
notes: human IgG1; group 13
B7: anti-mutCALR antibody clone 48 (antibody, human IgG1, lambda, V domains shown)
VH: EVQLVQSGAEVKKPGSSVKVSCKASGGTFSSYAISWVRQAPGQGLEWMGGIIPIFGTANYAQKFQGRVTITADESTSTAYMELSSLRSEDTAVYYCASSPLRGSGWYWHYYYGMDVWGQGTTVTVSS
VL: SYVLTQPPSVSVAPGKTARITCGGNNIGSKSVHWYQQKPGQAPVLVIYQDRKRPSGIPERFSGSNSGNTATLTISGTQAMDEADYYCQAWDSSTAVFGGGTKLTVLG
B8: anti-mutCALR antibody clone 49 (antibody, human IgG1, lambda, V domains shown)
VH: B7 VH
VL: SYELTQPPSVSVAPGKTARITCGGNNIRAKHVHWYQQKPGQSPVLVIYQDSKRPSGIPERFSGSNSGSTATLTISRVEAGDEADYYCQVWDSSTVVFGGGTKLTVLG
B9: anti-mutCALR antibody clone 44 (antibody, human IgG1, lambda, V domains shown)
VH: B7 VH
VL: B7 VL with V12A, T21S, G28R, P39A, R51S, S93N, A95V
B10: anti-mutCALR antibody clone 43 (antibody, human IgG1, lambda, V domains shown)
VH: B7 VH with S16A
VL: not shown
B11: anti-mutCALR antibody clone 50 (antibody, human IgG1, lambda, V domains shown)
VH: B7 VH with E1Q, V2M
VL: B7 VL with S29T, A42S, A89V, A95E
B12: anti-mutCALR antibody clone 47 (antibody, human IgG1, lambda, V domains shown)
VH: B7 VH
VL: B8 VL with N26K, R28G, A29T, H31S, S42A, Q49R, K52N, S68N, V77A, E78Q
B13: anti-mutCALR antibody clone 45 (antibody, human IgG1, lambda, V domains shown)
VH: B7 VH
VL: SYVLTQPLSVSVAPGQTARITCGGNNIGRKSVHWYQQKPGQAPVLVIYRDSNRPSGIPERFSGSNSGNTATLTISRAQAGDEADYYCQVWDSSTVVFGGGTKLTVLG
B14: anti-mutCALR antibody clone 46 (antibody, human IgG1, lambda, V domains shown)
VH: B7 VH with E1Q
VL: B7 VL with V3E, G28R, I47V, R51S, A89V
B15: anti-mutCALR antibody clone 51 (antibody, human IgG1, lambda, V domains shown)
VH: B7 VH
VL: B7 VL with V3E, N26K, S29T, R51S, D91G, A95V
B16: anti-mutCALR antibody clone 41 (antibody, human IgG1, lambda, V domains shown)
VH: EVQLVQSGAEVKKPGASVKVSCKVSGYTLTELSMHWVRQAPGKGLEWMGLVDPEDGETIYAQKFQGRVTMTEDTSTDTAYMELSSLRSEDTAVYYCAREEWSGDGDDAFDIWGQGTMVTVSS
VL: QSVLTQPPSVSAAPGQKVTISCSGSSSNIGSYSVSWYQQLPGTAPKLLIYDNNKRPSGIPDRFSGSNSGTSATLGITGLQTGDEADYYCGTWDSSLSAWVFGGGTKLTVLG
notes: human IgG1; group 4
B17: anti-mutCALR antibody clone 40 (antibody, human IgG1, lambda, V domains shown)
VH: B16 VH with L32S
VL: B16 VL
notes: human IgG1; group 4
B18: anti-mutCALR antibody clone 42 (antibody, human IgG1, lambda, V domains shown)
VH: B16 VH
VL: B16 VL with N52D, G75S
notes: human IgG1; group 4
B19: anti-mutCALR antibody clone 38 (antibody, human IgG1, kappa, V domains shown)
VH: EVQPVQSGAEVKKPGSSVKVSCKASGGTFSSYAISWVRQAPGQGLEWMGLVDPEDGETIYAEKFRGRVTITADTSTDTAYMELSSLRSEDTAVYYCATEESYGPWGQGTLVTVSS
VL: DIQLTQSPSSLSASVGDRVTITCQASQDISNYLNWYQQKPGKAPKLLIYDASNLETGVPSRFSGSGSGTEFTLTISSLQPEDFATYYCQQLNSYPLTFGGGTKLEIKR
notes: human IgG1; group 3
B20: anti-mutCALR antibody clone 39 (antibody, human IgG1, kappa, V domains shown)
VH: B19 VH with P4L, R65Q
VL: B19 VL with N34D
notes: human IgG1; group 3
B21: anti-mutCALR antibody clone 31 (antibody, human IgG1, lambda, V domains shown)
VH: B4 VH
VL: B4 VL with R8A, A23T, G26S, H34Y
B22: anti-mutCALR antibody clone 33 (antibody, human IgG1, lambda, V domains shown)
VH: B4 VH
VL: B4 VL
B23: anti-mutCALR antibody clone 34 (antibody, human IgG1, lambda, V domains shown)
VH: B4 VH
VL: B5 VL

Numbering of substitutions follows the chain as printed.

The first test has as its target MBP protein (UniProt P0AEX9 27-392 = MBP). The test can be described thus: SPR (Biacore 8K), antibody captured on anti-human IgG (Fc), MBP injected. On the procedure: Experiment 1: Recombinant MBP-mutCALR Type 1 fusion protein was custom made at Cepter (cepterbiopartners.com). Data for the interaction of antibodies with recombinant MBP-mutCALR Type 1 fusion protein were collected at 25° C. on a Biacore 8K instrument (Cytiva, Marlborough, Mass.), and all reagents were obtained from Cytiva unless otherwise specified. The experiments were conducted using Tris-buffered saline (pH 7.2), 0.005% Surfactant P20, 1 mM CaCl₂) as running buffer. To prepare the capture surfaces, anti-human IgG (Fc) antibodies (Product #29234600) was amine-coupled onto a CM4 chip (Product #BR100534) under standard conditions using an Amine Coupling Kit (Product #BR100050). […] The kinetics parameters were obtained by applying 1:1 binding model to fit the data from multiple-cycle injection experiments using Biacore Insight Evaluation software.
In general terms: In SPR one partner is held on a chip, and binding of the other changes the refractive index at the surface.
B1: the binding result was “no binding (tested: 250 nM)”.

Regarding B2, the binding result is “no binding (tested: 250 nM)”. As to B3, the binding result is listed as “no binding (tested: 250 nM)”. With B4, the binding result is “no binding (tested: 250 nM)”. Turning to B5, the binding result is “no binding (tested: 250 nM)”. As for B6, the binding result is on record as “no binding (tested: 250 nM)”.

As to B7, the binding result is on record as “no binding (tested: 250 nM)”. Same read-out and setting: the result for B8 reads “no binding (tested: 250 nM)”. As for B9, the binding result is recorded as “no binding (tested: 250 nM)”. Turning to B10, the binding result is recorded as “no binding (tested: 250 nM)”. Take B11: the binding result was “no binding (tested: 250 nM)”. As to B12, the binding result is given as “no binding (tested: 250 nM)”.

In the case of B13, the binding result is on record as “no binding (tested: 250 nM)”.

Consider B14, for which the binding result is listed as “no binding (tested: 250 nM)”. Same read-out and setting: the result for B15 reads “no binding (tested: 250 nM)”. For B16, the binding result is on record as “no binding (tested: 250 nM)”. For B17, the binding result is “no binding (tested: 250 nM)”. As to B18, the binding result is reported as “no binding (tested: 250 nM)”. With B19, the binding result is recorded as “no binding (tested: 250 nM)”.

Take B20: the binding result is given as “no binding (tested: 250 nM)”.

For another test, the target named is T1, Human Type 1 mutCALR. The experiment in a line: cell-based or functional assay.
With B21, the “IC50 of inhibition of cell proliferation (Ba/F3 cells with MPL and mutCALR Type 1)” value is 13 µg/mL. Consider B22, for which the “IC50 of inhibition of cell proliferation (Ba/F3 cells with MPL and mutCALR Type 1)” value came to 16.9 µg/mL. On the same count and under the same terms, under B23 stands 0.0593 µg/mL.

Source of the values: patent US20230272055A1 (Incyte, published 2023).
